Laboratory results from KR20210073785A (dated 2021).

Molecular target: T1, 호산구 유래 신경독(eosinophil-derived neurotoxin, EDN) (UniProt P10153 28-161)
T1 construct: also called 항원 EDN
T1 sequence (looked up): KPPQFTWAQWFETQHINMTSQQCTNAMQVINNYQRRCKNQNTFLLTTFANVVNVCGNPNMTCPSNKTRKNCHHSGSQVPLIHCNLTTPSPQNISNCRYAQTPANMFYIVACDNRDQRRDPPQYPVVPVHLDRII
Experiment: BLI (Octet), AR2G amine-reactive biosensor, antibody immobilised, EDN as analyte at 12.5, 6.25, 3.13, 1.56 and 0.78 nM, 1X kinetic buffer

B1: 단일클론항체 Anti-6C5 (antibody, V domains shown)
VH: EVQLQQPGPELVKPGASVKISCKASAYSFTDYIMLWVKQSHGKSLEWIGNIHPYYGSSSYNLKFKGKATLTVDKSSSTAYMQLNSLTSEDSAVYYCAREVGFGKGGFDYWGQGTTLTVSS
VL: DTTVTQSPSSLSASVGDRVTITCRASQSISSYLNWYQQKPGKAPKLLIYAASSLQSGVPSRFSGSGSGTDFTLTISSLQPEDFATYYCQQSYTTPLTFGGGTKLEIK
notes: Whole monoclonal antibody produced from hybridoma cell line 6C5 (culture supernatant); The heavy chain ran at 50 kDa on reducing SDS-PAGE; also called Anti-6C5(6C5)
  Kd: 0.0576 nM
